Test results from patent US20110250170A1 (PHILOGEN S P A, published 2011).

Target: T1, A1 domain of tenascin-C (TNC-A1) (UniProt P24821 1073-1163, limits assumed)
T1 construct: domain: A1; Coupled to Sepharose resin in the immunoreactivity test; also called extra-domain A1 of tenascin-C
T1 sequence (looked up): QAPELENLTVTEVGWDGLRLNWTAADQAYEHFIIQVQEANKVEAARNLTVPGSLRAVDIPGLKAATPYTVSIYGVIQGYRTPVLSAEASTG
Experiment: real-time interaction analysis, BIAcore 3000

B1: F16 human monoclonal antibody (original clone 4A1-F16) (antibody, V domains shown)
VH: EVQLLESGGGLVQPGGSLRLSCAASGFTFSRYGASWVRQAPGKGLEWVSAISGSGGSTYYADSVKGRFTISRDNSKNTLYLQMNSLRAEDTAVYYCAKAHNAFDYWGQGTLVTVSR
VL: SSELTQDPAVSVALGQTVRITCQGDSLRSYYASWYQQKPGQAPVLVIYGKNNRPSGIPDRFSGSSSGNTASLTITGAQAEDEADYYCNSSVYTMPPVVFGGGTKLTVL
Binder B1 has a koff of under 0.01 s⁻¹.
